Measured values published in US20140234872A1.

Target: GST-SHP-1 ΔN+CSH2 (amino acids 276-end) (human) (UniProt P29350)
Assay: GST pulldown (FIG. 20B)

Chain of GST-SHP-1 ΔN+CSH2 (amino acids 276-end) (human) (P29350 276-595, stated change not applied): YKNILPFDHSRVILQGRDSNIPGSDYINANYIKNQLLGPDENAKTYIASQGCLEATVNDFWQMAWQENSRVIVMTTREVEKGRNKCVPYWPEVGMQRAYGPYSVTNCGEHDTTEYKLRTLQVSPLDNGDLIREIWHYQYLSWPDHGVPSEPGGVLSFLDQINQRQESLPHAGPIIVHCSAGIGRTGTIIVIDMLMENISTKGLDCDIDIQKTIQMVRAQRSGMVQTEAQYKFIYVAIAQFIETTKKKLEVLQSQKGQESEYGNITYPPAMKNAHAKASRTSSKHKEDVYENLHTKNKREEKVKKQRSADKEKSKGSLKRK

reduction of binding against full length SHP-1: 80%
B1: His-GIV-CT (aa 1660-1870), wild-type, not phosphorylated (mock- or sham-treated) (protein, not shown: small tags and cut ends)
chain: SETLESRHHKIKTGSPGSEVVTLQQFLEESNKLTSVQIKSSSQENLLDEVMKSLSVSSDFLGKDKPVSCGLARSVSGKTPGDFYDRRTTKPEFLRPGPRKTEDTYFISSAGKPTPGTQGKIKLVKESSLSRQSKDSNPYATLPRASSVISTAEGTTRRTSIHDFLTKDSRLPISVDSPPAAADSNTTAASNVDKVQESRNSKSRSREQQSS
